Experimental data: patent US20090018093
Like-named read-outs stand apart in the source and are kept apart here.

What was measured:
[1] = tested on: Immunoglobulin E (IgE) (Homo sapiens), P01854-1; experiment: inhibition
[2] = tested on: Immunoglobulin E (IgE) (Homo sapiens), P01854-1; experiment: filter

Immunoglobulin E (IgE) (Homo sapiens), P01854-1, sequence (P01854 other isoform, or with tags, fused parts or gaps): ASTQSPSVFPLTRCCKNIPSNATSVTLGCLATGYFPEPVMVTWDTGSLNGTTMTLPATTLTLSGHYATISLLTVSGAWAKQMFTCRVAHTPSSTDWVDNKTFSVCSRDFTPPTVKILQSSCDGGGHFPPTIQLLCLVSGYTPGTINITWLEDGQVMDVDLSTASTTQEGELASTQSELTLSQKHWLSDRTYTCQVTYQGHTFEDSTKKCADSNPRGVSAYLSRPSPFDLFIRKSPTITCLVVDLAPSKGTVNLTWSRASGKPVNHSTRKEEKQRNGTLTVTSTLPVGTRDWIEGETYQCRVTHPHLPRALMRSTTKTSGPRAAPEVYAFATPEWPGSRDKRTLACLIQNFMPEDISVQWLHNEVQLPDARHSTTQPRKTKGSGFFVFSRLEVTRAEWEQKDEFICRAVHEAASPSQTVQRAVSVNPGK

AGCCUGGGGACCCAUGGGGGGCU [ARC1573] showed an IC50 ([1]; 2'-OMe/2'-deoxy mix, PS, 3' idT [PS after 5,6,7,8,15,16,17,18,19,20,21, 2'-OMe/2'-deoxy mix, 3' idT left out], FACS, 2.5 nM IgE) of 69.4 nM and a Kd ([2]; as printed mAmGmCmCmU-s-dG-s-mG-s-dG-s-dGmAmCmCmCmAmU-s-dG-s-mG-s-dG-s-dG-s-dG-s-dG-s-mCmU-3T [2'-OMe: 1-5,7,10-15,17,22,23, deoxy: 6,8,9,16,18-21, phosphorothioate after 5-8,15-21, 24 = 3' inverted dT], dPBS Ca/Mg + BSA, RT) of 0.4 nM.

Sequence “GGGGCTACTTTATCCGTTCCTCTTAGTGGGTAGCCCC [ARC479]” has an IC50 ([1]; FACS, 15 nM IgE) of 14.4 nM and a Kd [2] of 0.4 nM.

Sequence AGCCUGGGGACCCAUGGGGGGCU [ARC1383] has an IC50 ([1]; 2'-OMe/2'-deoxy mix, PS linkages as in Table 17, 3' idT [phosphorothioate linkages (internal N, left out) between 8-9, 15-16, 18-19, 20-21, 2'-OMe/2'-deoxy mix (positions not given), 3' inverted dT at 24], FACS, 2.5 nM IgE) of 7.5 nM and a Kd ([2]; 2'-OMe/2'-deoxy mix, PS linkages as in Table 17, 3' idT [phosphorothioate linkages (internal N, left out) between 8-9, 15-16, 18-19, 20-21, 2'-OMe/2'-deoxy mix (positions not given), 3' inverted dT at 24], DPBS Mg/Ca, 0.1 mg/mL BSA, RT) of 1 nM.

Work on “GGAAUCAUACACAAGACGUCGCCAGAUUGAGUGUCGUGGUUCC [rRfY minimer SEQ 91]” yielded an IC50 ([1]; 2'-F C,U, FACS, 15 nM IgE) of 3.8 nM and a Kd ([2]; 2'-F C and U, KD2 36.9 nM, 1xSHMCK + tRNA) of 0.56 nM.

Sequence “GGGAAAAGCGAAUCAUACACAAGAGUCGCUAGAUUGCUAGUGUAUGGUUUAUCUAAAGGCGGCCGCUCCGCCAGAGACCAACCGAGAA [rRfY clone SEQ 13]” has an IC50 ([1]; 2'-F C,U, ELISA FceR1-Fc, FACS 10.3 nM (Table 25)) of 4.3 nM and a Kd ([2]; 2'-F C and U, biphasic, KD2 14.6 nM, 1xSHMCK + tRNA, RT) of 0.139 nM.

In the case of AGUUCUGGGGACCCAUGGGGGAACU [ARC443], the IC50 ([1]; 2'-OMe C,U, deoxy A,G, FACS, 15 nM IgE) is reported as 30.2 nM and the Kd ([2]; dRmY: 2'-deoxy A,G, 2'-OMe C,U, 1xPBS, BSA, tRNA, ssDNA, 25 C) is reported as 55 nM.

“NNAGCCUGGGNGACCCAUNNNGNNGNNGCUN [ARC1788]” was tested, and the IC50 ([1]; ARC1666 chemistry, 5' 60 kDa branched PEG, 3' idT, FACS, IgE-FceR1 on SX38 cells) was 1.2 nM.

For AGCCUGGGGACCCAUGGGGGGCU [ARC1384], the IC50 ([1]; 2'-OMe/2'-deoxy mix, PS, 3' idT [PS after 8,15,16,18,20, 2'-OMe/2'-deoxy mix, 3' idT left out], FACS, 2.5 nM IgE) was 4.4 nM and the Kd ([2]; as printed mAmGmCmCmUdGmG-s-dGmAmCmCmCmAmU-s-dG-s-mGdG-s-dGdG-s-dGmCmU-3T [2'-OMe: 1-5,7,10-15,17,22,23, deoxy: 6,8,9,16,18-21, phosphorothioate after 8,15,16,18,20, 24 = 3' inverted dT], dPBS Ca/Mg + BSA, RT) was 0.5 nM.

AGCCUGGGGACCCAUGGGGGGCU [ARC1335] was tested, and the IC50 ([1]; 2'-OMe A1,G2,G7,A10,A14,G17 and all C,U, rest 2'-deoxy, 3' idT [2'-OMe at 1,2,3,4,5,7,10,11,12,13,14,15,17,22,23, 2'-deoxy at 6,8,9,16,18,19,20,21, 3' idT left out], FACS, 2.5 nM IgE) was 7.3 nM and the Kd ([2]; 2'-OMe C,U,A1,G2,G7,A10,A14,G17, deoxy G6,G8,G9,G16,G18-G21, 3' idT [2'-OMe: 1-5,7,10-15,17,22,23, deoxy: 6,8,9,16,18-21, 24 = 3' inverted dT], dPBS Ca/Mg + BSA, RT) was 0.3 nM.

Work on AGCCUGGGGACCCAUGGGGGGCU [ARC1785] yielded an IC50 ([1]; ARC1666 chemistry, 5' and 3' 20 kDa PEG [dI at 16,18,20 (written as parent G), PS after 8,15,16,18,20, 2'-OMe/2'-deoxy mix (ARC1666 chemistry), 5' and 3' amine linker-20 kDa PEG left out], FACS, IgE-FceR1 on SX38 cells) of 2 nM.

For “NNAGCCUGGGNGACCCAUNNNGNNGNNGCUN [ARC1787]”, the IC50 ([1]; ARC1666 chemistry, 5' 40 kDa branched PEG, 3' idT, FACS, IgE-FceR1 on SX38 cells) was 1.2 nM.

With “GGCGGCAGCTTTATCCGTACCTCCCAGTGGGCTGCTCC [DNA clone SEQ 149]” the IC50 ([1]; FACS, 15 nM IgE) was 55.9 nM and the Kd [2] was 0.8 nM.

With AGCCUGGGGACCCAUGGGGGGCU [ARC1790] the IC50 ([1]; ARC1666 chemistry, 5' and 3' 30 kDa PEG [dI at 16,18,20 (written as parent G), PS after 8,15,16,18,20, 2'-OMe/2'-deoxy mix (ARC1666 chemistry), 5' and 3' amine linker-30 kDa PEG left out], FACS, IgE-FceR1 on SX38 cells) was 0.89 nM.

Work on “GGGGCTACTTTATCCGTTCCTCCTAGTGGGTAGCCCC [ARC656]” yielded an IC50 ([1]; 3' idT [3' idT left out], FACS, 2.5 nM IgE, histamine release IC50 16.9 nM) of 21.2 nM.

Sequence “GGGGCTACTTTATCCGTTCCTCCTAGTGGGTAGCCCCT [ARC1410]” has a Kd ([2]; DNA with 2'-OMe G1-G4,A7,G33-C37, PS between T27 and G28, 3' idT [2'-OMe G1-G4, A7, G33-C37, PS 27/28 (printed N = PS linkage, left out), 3' inverted dT at 38], dPBS Ca/Mg + BSA) of 0.7 nM.

“GGGGCTACTTTATCCGTTCCTCCTAGTGGGTAGCCCC [ARC1396]” gave a Kd ([2]; 2'-OMe at 1-4,7,33-37, PS 13-14, 3' idT [2'-OMe at 1-4,7,33-37, PS linkage 13-14 (internal N = PS, not a base), 3' inverted dT cap (terminal N, left out)], DPBS Mg/Ca, BSA) of 2 nM.

“GGGGCTACTTTATCCGTTCCTCCTAGTGGGTAGCCCCT [ARC1387]” was tested, and the Kd ([2]; 2'-OMe at 1-4,7,33-37, 3' idT [2'-OMe: 1-4,7,33-37, 38 = 3' inverted dT], DPBS Mg/Ca, BSA) was 2.4 nM.

Work on “GGGGCTACTTTAUCCGTTCCTCCTAGTGGGTAGCCCC [ARC1277]” yielded a Kd ([2]; DNA with 2'-OMe U13, 3' idT [2'-OMe U13, 3' inverted dT38], dPBS Ca/Mg + BSA) of 6 nM.

In the case of AGCCUGGGGACCCAUGGGGGGCU [ARC3270], the Kd ([2]; ARC1666 pattern with 2'-OMe G9 and extra PS after G21, C22 and U23, 3' idT [dI (written G) at 16,18,20, 2'-OMe 1-5,7,9,10-15,17,22,23, deoxy 6,8,16,18-21, PS 8/9,15/16,16/17,18/19,20/21,21/22,22/23,23/idT, 3' inverted dT left out], dPBS Ca/Mg + BSA, RT) is reported as 0.04 nM.

With “GGGGCTACTTTATCCGTTCCTCCTAGTGGGTAGCCCCT [ARC1269]” the Kd ([2]; 2'-OMe at 5, 3' idT [5 (2'-OMe C), 38 (3' inverted dT)], DPBS Mg/Ca, BSA) was 0.3 nM.

With “AGCCUNGGGNGACCCAUNNNGNNGNNGCUN [ARC2973]” the Kd ([2]; ARC1666 chemistry + PS 5-6, 3' idT, DPBS Mg/Ca, BSA, RT) was 0.05 nM.

For “GGGGCTACTTTATCCGTTCCTCCTAGTGGGTAGCCCC [ARC1407]”, the Kd ([2]; 2'-OMe at 1-4,7,33-37, PS 24-25, 3' idT [2'-OMe at 1-4,7,33-37, PS 24-25, 3' idT cap after 37 (left out)], DPBS Mg/Ca, BSA) was 1.8 nM.

Work on AGCCUGGGGACCCAUGGGGGGCU [ARC1332] yielded a Kd ([2]; 2'-OMe G2,A10,A14 and all C,U, rest 2'-deoxy, 3' idT [2'-OMe G2,C3,C4,U5,A10,C11,C12,C13,A14,U15,C22,U23, 3' inverted dT at 24], DPBS Mg/Ca, 0.1 mg/mL BSA, RT) of 0.5 nM.

AGCCUGGGGACCCAUGGGGGGCU [ARC1563] gave a Kd ([2]; ARC1335 chemistry with dI17, 3' idT [17=dI (G parent), 24=3' inverted dT], DPBS Mg/Ca, 0.1 mg/mL BSA, RT) of 2.2 nM.

With “AGCCUGGGNGACCCAUNNNGNNGNNGNCNUN [ARC2341]” the Kd ([2]; ARC1666 chemistry + PS 21-22,22-23, 3' idT, DPBS Mg/Ca, BSA, RT) was 0.05 nM.

In the case of “GGGGCTACTTTATCCGTTCCTCCTAGTGGGTAGCCCC [ARC1405]”, the Kd ([2]; 2'-OMe at 1-4,7,33-37, PS 22-23, 3' idT [2'-OMe at 1-4,7,33-37, PS 22-23, 3' idT cap after 37 (left out)], DPBS Mg/Ca, BSA) is reported as 2.5 nM.

“AGCCUGGGNGACCCAUNNNGNNGNNGNCNUNN [ARC2342]” gave a Kd ([2]; ARC1666 chemistry + PS 21-22,22-23,23-idT, 3' idT, second independent measurement 0.04 nM) of 0.19 nM.

With “GGGGCTACTTTATCCGTTCCTCCTAGTGGGTAGCCCC [ARC1402]” the Kd ([2]; 2'-OMe at 1-4,7,33-37, PS 19-20, 3' idT [2'-OMe at 1-4,7,33-37, PS linkage 19-20 (internal N = PS, not a base), 3' inverted dT cap (terminal N, left out)], DPBS Mg/Ca, BSA) was 2.1 nM.

Sequence “GGGGCTACTTTATCCGTTCCTCCTAGTGGGTAGCCCCN [ARC1280]” has a Kd ([2]; 2'-OMe at 16, 3' idT, DPBS Mg/Ca, BSA) of 0.6 nM.

With “GGGGCUACTTTATCCGTTCCTCCTAGTGGGTAGCCCC [ARC1270]” the Kd ([2]; 2'-OMe U at 6, 3' idT [6 (2'-OMe U), 38 (3' inverted dT)], DPBS Mg/Ca, BSA) was 0.2 nM.

AGCCUGGGGACCCAUGGGGGGCU [ARC1257] gave a Kd ([2]; 2'-OMe A14 and all C,U, rest 2'-deoxy, 3' idT [2'-OMe at 3,4,5,11,12,13,14,15,22,23, 3'-idT at 24], DPBS Mg/Ca, 0.1 mg/mL BSA, RT) of 6 nM.

With “GGGGCTACTTTATCCGTTCCTCCTAGTGGGTAGCCCC [ARC1411]” the Kd ([2]; 2'-OMe at 1-4,7,33-37, PS 28-29, 3' idT [2'-OMe at 1-4,7,33-37, PS 28-29, 3' idT cap after 37 (left out)], DPBS Mg/Ca, BSA) was 5.4 nM.

Sequence AGCCUGGGGACCCAUGGGGGGCU [ARC1562] has a Kd ([2]; ARC1335 chemistry with dI16, G17 deoxy as printed, 3' idT [16=dI (G parent), 17=deoxy G, 24=3' inverted dT], DPBS Mg/Ca, 0.1 mg/mL BSA, RT) of 0.6 nM.

Sequence AGCCUGGGGACCCAUGGGGGGCU [ARC903] has a Kd ([2]; dRmY (2'-OMe C,U), 7-deaza-dG6 [7-deaza-dG at 6, 2'-OMe C3,C4,U5,C11,C12,C13,U15,C22,U23, A,G 2'-deoxy], DPBS Mg/Ca, 0.1 mg/mL BSA, RT) of 14 nM.

AGCCUGGGGACCCAUGGGGGGCU [ARC1567] was tested, and the Kd ([2]; ARC1335 pattern with dI21, 3' idT [dI21 (inosine, parent base G), 3' inverted dT24, rest ARC1335 pattern], dPBS Ca/Mg + BSA, RT) was 3.5 nM.

“GGGGCTACTTTATCCGTTCCTCCTAGTGGGTAGCCCCT [ARC1278]” gave a Kd ([2]; 2'-OMe at 14, 3' idT [14 (2'-OMe C), 38 (3' inverted dT)], DPBS Mg/Ca, BSA) of 2 nM.

Sequence “GGGGCTACTTTATCCGTTCCTCCTAGTGGGTAGCCCCN [ARC1284]” has a Kd ([2]; 2'-OMe at 20, 3' idT, DPBS Mg/Ca, BSA) of 0.1 nM.

With “GGGAGAGGAGAGAACGUUCUACACUCUGGGGACCCGUGGGGGAGUGCAGCAACGCUGUCGAUCGAUCGAUCGAUG [ARC2005]” the Kd ([2]; dRmY: 2'-deoxy A,G, 2'-OMe C,U, error 3, dPBS Ca/Mg + BSA, RT) was 5 nM.

Sequence “AGCNCUGGGNGACCCAUNNNGNNGNNGCUN [ARC2971]” has a Kd ([2]; ARC1666 chemistry + PS 3-4, 3' idT, DPBS Mg/Ca, BSA, RT) of 0.06 nM.
